The results in this text go back to paper PMC8320243 (Circulation research, 2021).

The data set concerns the molecule itself. Description: cross-linking.

B1: cMyc-tagged RyR2 N-terminus (NT, residues 1-906), wild type (domain or fragment, UniProt Q92736 1-906, looked up)
chain: MADGGEGEDEIQFLRTDDEVVLQCTATIHKEQQKLCLAAEGFGNRLCFLESTSNSKNVPPDLSICTFVLEQSLSVRALQEMLANTVEKSEGQVDVEKWKFMMKTAQGGGHRTLLYGHAILLRHSYSGMYLCCLSTSRSSTDKLAFDVGLQEDTTGEACWWTIHPASKQRSEGEKVRVGDDLILVSVSSERYLHLSYGNGSLHVDAAFQQTLWSVAPISSGSEAAQGYLIGGDVLRLLHGHMDECLTVPSGEHGEEQRRTVHYEGGAVSVHARSLWRLETLRVAWSGSHIRWGQPFRLRHVTTGKYLSLMEDKNLLLMDKEKADVKSTAFTFRSSKEKLDVGVRKEVDGMGTSEIKYGDSVCYIQHVDTGLWLTYQSVDVKSVRMGSIQRKAIMHHEGHMDDGISLSRSQHEESRTARVIRSTVFLFNRFIRGLDALSKKAKASTVDLPIESVSLSLQDLIGYFHPPDEHLEHEDKQNRLRALKNRQNLFQEEGMINLVLECIDRLHVYSSAAHFADVAGREAGESWKSILNSLYELLAALIRGNRKNCAQFSGSLDWLISRLERLEASSGILEVLHCVLVESPEALNIIKEGHIKSIISLLDKHGRNHKVLDVLCSLCVCHGVAVRSNQHLICDNLLPGRDLLLQTRLVNHVSSMRPNIFLGVSEGSAQYKKWYYELMVDHTEPFVTAEATHLRVGWASTEGYSPYPGGGEEWGGNGVGDDLFSYGFDGLHLWSGCIARTVSSPNQHLLRTDDVISCCLDLSAPSISFRINGQPVQGMFENFNIDGLFFPVVSFSAGIKVRFLLGGRHGEFKFLPPPGYAPCYEAVLPKEKLKVEHSREYKQERTYTRDLLGPTVSLTQAAFTPIPVDTSQIVLPPHLERIREKLAENIHELWVMNKIELGWQYGP
In the case of B1, the “stoichiometry N” value stood at 4.

B2: cMyc-tagged RyR2 N-terminus (NT, residues 1-906) with R420Q (domain or fragment, UniProt Q92736 1-906, looked up)
chain: MADGGEGEDEIQFLRTDDEVVLQCTATIHKEQQKLCLAAEGFGNRLCFLESTSNSKNVPPDLSICTFVLEQSLSVRALQEMLANTVEKSEGQVDVEKWKFMMKTAQGGGHRTLLYGHAILLRHSYSGMYLCCLSTSRSSTDKLAFDVGLQEDTTGEACWWTIHPASKQRSEGEKVRVGDDLILVSVSSERYLHLSYGNGSLHVDAAFQQTLWSVAPISSGSEAAQGYLIGGDVLRLLHGHMDECLTVPSGEHGEEQRRTVHYEGGAVSVHARSLWRLETLRVAWSGSHIRWGQPFRLRHVTTGKYLSLMEDKNLLLMDKEKADVKSTAFTFRSSKEKLDVGVRKEVDGMGTSEIKYGDSVCYIQHVDTGLWLTYQSVDVKSVRMGSIQRKAIMHHEGHMDDGISLSRSQHEESRTARVIQSTVFLFNRFIRGLDALSKKAKASTVDLPIESVSLSLQDLIGYFHPPDEHLEHEDKQNRLRALKNRQNLFQEEGMINLVLECIDRLHVYSSAAHFADVAGREAGESWKSILNSLYELLAALIRGNRKNCAQFSGSLDWLISRLERLEASSGILEVLHCVLVESPEALNIIKEGHIKSIISLLDKHGRNHKVLDVLCSLCVCHGVAVRSNQHLICDNLLPGRDLLLQTRLVNHVSSMRPNIFLGVSEGSAQYKKWYYELMVDHTEPFVTAEATHLRVGWASTEGYSPYPGGGEEWGGNGVGDDLFSYGFDGLHLWSGCIARTVSSPNQHLLRTDDVISCCLDLSAPSISFRINGQPVQGMFENFNIDGLFFPVVSFSAGIKVRFLLGGRHGEFKFLPPPGYAPCYEAVLPKEKLKVEHSREYKQERTYTRDLLGPTVSLTQAAFTPIPVDTSQIVLPPHLERIREKLAENIHELWVMNKIELGWQYGP
Turning to B2, the “stoichiometry N” value was determined as 4.
